Data taken from article PMC4706170.

What was measured:
[1] = target: BG505 SOSIP.664 trimer (HIV-1 strain BG505); test: AUC
[2] = target: BG505 SOSIP.664 201C-433C (HIV-1 strain BG505); test: AUC

Substance | stoichiometry N (CD4 per trimer) [1] | stoichiometry N (CD4 per trimer) [2]
2-domain soluble CD4 (CD4 D1D2) (domain or fragment) | 3 | –
2-domain soluble CD4 (domain or fragment) | – | 1
4-domain CD4 (domain or fragment) | 2 | 1
4-domain soluble CD4 (CD4 D1D4) (domain or fragment) | 3 | –
